How the values were obtained:
[1] = system: U10-25* dsDNA substrate; assay: Uracil excision assay, dsDNA preincubated with RPA-WT or RPA-ΔWH; type: biochemical; details: 100 nM U10-25* dsDNA
Method: (§1) 3′-FAM-labelled, PAGE-purified oligonucleotide substrates were from Sigma-Aldrich. Unless otherwise indicated, the substrate (25 nt) harboured uracil at position 10 in a polyC sequence to avoid secondary structures (U10-25*: […]-FAM). Double-stranded substrate was generated by annealing (heating followed by slow cooling) U10-25* to a non-labelled complementary oligo (A16-25: […]). All assays were performed at 22°C in 10 mM Tris–HCl pH 7.5, 50 mM NaCl, 1 mM DTT, 0.1 mM EDTA, 0.5 mg/ml BSA.
(§2) Varying amounts of UNG were then added, and the mixtures incubated for 10 min in a water bath. To avoid unspecific interactions and binding of enzyme and DNA to the assay tube surface, low-DNA binding tubes and excess of BSA was used in all reactions. Reactions were quenched and AP sites cleaved in 10% piperidine at 90°C for 20 min. Samples were dried by vacuum centrifugation and suspended in formamide-containing loading buffer. Product and substrate were separated in 12% PAGE/7M urea–0.5× TBE gels, bands visualised in ChemiDoc™ Imager (Bio-Rad) and quantified by Image Lab software (Bio-Rad). Importantly, all assays in which two parameters were compared (e.g. RPA-coated versus naked substrate or WT versus mutated protein) were performed in parallel with the exact same DNA/protein dilutions.

[2] = system: U10-25* ssDNA substrate; assay: Uracil excision assay, RPA-coated versus naked ssDNA; type: biochemical; details: 1 μM RPA, 100 nM U10-25* ssDNA; 10 min, 22°C; three independent experiments
Method: as §1, §2

B1: UNG-CD: catalytic UNG domain, starting at UNG2 aa 93, lacking the N-terminal RPA-binding helix (protein)
chain: GFGESWKKHLSGEFGKPYFIKLMGFVAEERKHYTVYPPPHQVFTWTQMCDIKDVKVVILGQDPYHGPNQAHGLCFSVQRPVPPPPSLENIYKELSTDIEDFVHPGHGDLSGWAKQGVLLLNAVLTVRAHQANSHKERGWEQFTDAVVSWLNQNSNGLVFLLWGSYAQKKGSAIDRKRHHVLQTAHPSPLSVYRGFFGCRHFSKTNELLQKSGKKPIDWKEL
fold increased enzyme concentration to convert similar amounts of substrate in presence of RPA-WT ([1]; 500 nM RPA-WT): ~200 fold
fold increased enzyme concentration to convert similar amounts of substrate in presence of RPA-ΔWH ([1]; 500 nM RPA-ΔWH): ~50 fold
fold reduced activity with RPA-coated ssDNA compared to naked DNA substrate [2]: 1000 fold
